Data as given in the DeepSol protein solubility set.

assay: soluble on expression in E. coli; label from the status in PepcDB or PDB records

Row | Sequence | soluble on expression in E. coli
1 | MKRALGVSVYPDHSDINQDKAYLKKASECGFTRIFMSMLEVTDGKEAVQKKFKELISYAKNLGFETILDVVPSIFDELEISYDDLTFFSELGADGIRLDTGFDGNKEAMLTFNPFGVAIELNMSNDVAYLDNILTYEANRPFLYGCHNFYPQAGTALPYDFFEKCSIRFKKEGIRTAAFISSQVGEIGPWDVNDGLPTLEMHRQLPVTVQAKHLFATNLIDDVVIGNAYASNEELEALGQLNRYQTELTIVFEEATSEIEKEIVTKNQHFRRGDITQQMIRSTEVRKKYKNEVNPPHDNQAMLQPGDVVVGNDAFGKYKNELQVVLEPHQDSRKNRVGRIIEEELVLLEFIKPWTKFRFIEK | not soluble
2 | MGSFQAVAPTRLYRMIADQIAGRIRAGDFPAGGRLPAERELAEQLQVSRASVREALIALEIEGYVEVRVGTGVFVAAPRADGDYGVAPAPQPGHTDIGPFDLLDTRLLLEPECASLAAQKASPAQIAAISSAHAAMSLSDSPGAHDQAFHGAIAAACGNAALAAAISHIWHLSATSPVFSRLEQHFVTTKVWEAAEREHERILAAIVDRDPIRARHAMHDHLVGILARLREDFGSGAIR | not soluble
3 | MSLNVFDATLKRLEYIFEEFDKVYFSFSGGKDSGLMVQLANLVAEKLDRNFDLLILNIEANYTATVDFIKKIEQLPRVKNIYHFCLPFFEDNNTSFFQPQWKMWDPSEKEKWIHSLPKNAITLENIDDGLKKYYSLSNGNPDRFLRYFQNWYKEQYPQSAISCGVGIRAQESLHRHSAVTKGENKYKNRCWINITLEGNILFYPLFDWKVGDIWAATFKCELEYNYIYEKMYKIGYKYRDMREGHHHHHH | soluble
4 | MGSDKIHHHHHHMSLLTVKDLGQSFIDKTLYEDANFVLNKEDHMGVTGQNGVGKSTLIKILTGEILPDNGQVKWQNKIDVGYLDQYAKLAPGVTIRGFLRTAFDDLFQKEKELNELYTKYAETSDEDLLEKAGKVQTYLEENNFYDIDTEIEQVASGLGLADLGYDHDVSKLSGGQRSKIILGKLLLQNPDVLVLDEPTNYLDVSHIDWLVDYLNNFEGAFIVVSHDYDFLGRITNCIIDIDFGTITRYTGTLKQAMRQKAANRETYLKAYANQQRKIAKTEAYIRKNKAGTRAKSAKSREKQLARMDVLTPPKNNRRAKFEFPYVATASNLLLQTQDLVIGYDQALVKSAFNFSVGGDEKVAITGFNGIGKTTLLKTLLGQLKPIYGSYDLSVTAKLAYFKQDLTWPNNNMTPLQYLQEEFERKKPKELRQALARMGLTAQQAMSPLKELSGGEQEKVKLAKMQFEPANLLFLDEPTNHLDNDTKDALRKAIINFSGGVIIVSHERDFFRGDWIDKTIDIETMN | not soluble
5 | MSLSFPQLHTVTSYSLLSSTVRIRSYVKQAKALGYQTLAITDINVLHGAVEFYEACQEAGIQPIIGLRLEYTPAEKEGHSELLLFAKNLKGYQQLMQLSSSKMTTEGPFYLAEHQSLLSDLFAVTLSAKGEVAQTFFEDEQQAVHAFQQLASYFDPQSLFVEHSFSMNQQRNPALFSFYQREQLPGVALQEVRHLTREEGFAVTVLESIKENNQLNITSQTPEIEGLNYLREAETTMEQMLQEGHHHHHH | not soluble
6 | MNALPSSAEFSRAVGGDAVSREAVIRIEHLSKTFSDAAGPVLDDVSLTIRRGEIHGIIGRSGAGKSTLVRCINLLERPSAGRVIVSGREITSLRGRALRNARRDIGMIFQHFNVLSSHTVAGNVALPFKVAGLPRAEIARRIPPLLELVGLAHKADAYPSELSGGQKQRVGIARALALDPSVLLCDEATSALDPETTDQILALLRDINRKLGLTIVLITHEMHVVRDIATRVAVLDHGRVVEEGATFDVLAFPKSAVARSFLSGLVAHELPPPVAAQLLPAAVPGSDPVLRIVFTGTAAHDPIVADLVSVFGIQPNILHGRIDYVGDRPLGVLTLVAGGAGEKLPAVLSHLSSLGLVVEVIGHAVRSAVARRHSAARLEHHHHHH | not soluble
7 | MGHHHHHHSHMEALARLHLTVTRAYKVNTDINFEVFIHKVDGLSDDHKIETQRDIHQRANDDLADAGLEKIHLSFYLTSIYDHSIFEAFSKVVQKLIPQLPTLENLLNIFISNSGIEKAFLFDVVSKIYIATDSTPVDMQTYELCCDMIDVVIDISCIYGLKEDGAGTPYDKESTAIIKLNNTTVLYLKEVTKFLALVCFVREESFERKGLIDYNFHCFRKAIHEVFEVRMKVVKSRKVQNRLQKKKRATPNGTPRVLL | soluble
8 | MNKERQDLSGLEAVWLFGYGSLIYKVDFPYLERAAASIQGWSRRFWQGSHDHRGTPEAPGRVLTLTETPGEECTGMAYKVSPDVFEHLDHREKNGYLRFTTPMSFRDGSQQEGLVYIATEDNEAFLGEATASEIASHIARSSGPSGPNAEYLVKLQLALQQLGVNDPHITQVYEALMADRASLEHHHHHH | soluble
9 | MRDLSHALGSGEPYPGDPPAAVTPHATMAADGYRVSAVACSTHSGTHIDAPSHLLADGRSLDAFDVSAFRFDAHVVDCTGYGPEDAIPVDRVPALDDHDMVVFNTGTAADWGRPEYYEHPHLSVAAAERCADAGCAVAVDAPSVDPTRTAPAGESSDAAAYPAHRALLGAGALIVENVTNLDGLPERVPVQAYPLPVAADGAPARVIAAPLEHHHHHH | soluble
10 | MSLNSSQIQSVNVELFNVPLDEVLNDAKHGDHTHFELILCTITCTDGTQGVGYTYTGGKGGRAIYSLLNDELKPFLMGKDASCINHLWEEMQYHLHYVGRGGLVSFAISAVDIALWDIHCKVLNQPLWKVAGGCSDRVNCYAGGIDLNFSTEKLLGNIQGYLDCGFEAVKIKVGKEDYREDVARVAAVRNLIGPDAIFMVDANYSLTVNKAIKFAQAIEQYDITWFEEPTIPDDFAGFAHIASKINIPLAMGENLHTIYEFNQAISQAKLGFLQPDASNIGGITGWLTVAQMGYANNLPICSHGMHELHVSLMASQPNAGYLEVHSFPIDRYTTHPLKLENGKAVAPSTPGVGVEFKTELLLPYLVKHSEGHHHHHH | soluble
11 | MAKKVKVITDPEVIKVMLEDTRRKILKLLRNKEMTISQLSEILGKTPQTIYHHIEKLKEAGLVEVKRTEMKGNLVEKYYGRTADVFYINLYLGDEELRYIARSRLKTKIDIFKRLGYQFEENELLNIMDRMSQKEFDATVRISKYIEEKEDALKDFSNEDIIHAIEWLSTAELARDEEYLELLKRLGSILKR | soluble
12 | MPTFTTHRQIAHSAREMFDLVADIECYPEFLPMCEALIVRSRKKCEEKTLLLADMTVGYKLVRETFTTQVFLQPKEKRIEVKYIDGPFKYLENRWAFHHTEKSNICNIEFFIDYEFKSKMLGLVMGSMFDIAFHKFTDAFERRAHRIYGSPVI | soluble
13 | MPHPNRTFKIVIAPDSFKSTATTSQAAAFIAEGIQAAVQSNECEGINVEITTVPMADGGEGTSSCFEGIDITLPTTDANGRLTEATYRFDPQSETAYIDVAAASGLPAVEDELRPLTADTYGTGVLIADAQTRGARR | not soluble
14 | MGSDKIHHHHHHASCNKFDDLNTNPDAATKVTAPMLATKLILNITQQGSAKNFVYHSMLSKQIAWSENASDEQYNLFGRTDFDGYTILTNCQKMVDAANEGDKDSYAALAKFMKAYKLFYKSLEVGDIPYSDALKGEEGVQKPKYDTQKEVMRQVLEDLEEAYTLFSSGSDFDGDPIFGGDTENWKKTVVAFELKVLTHLCKKDTDADLKVKERFARLVSSGSLMTSNADNFQLVYSNKAGQLYPFYYTQNKHSDYLMMSSVIIDNLKKFNDYRMFYYASPAKAQTDKGIKDSEWDAYLSIDPSDSYSNISVLYGKGEFCLANLRYTRVPEGEPLMRLSYAEQNFILAEGAVRGWISEDASTYYKKGIEASMNFIADNTPDKEEYTHGRTITQEYIQEYLAQPVIQLSGDKEKDLEMILLQRYLASFLQHPYDAYYDYRRTGYPVLPINPSTNLNTEKNKIPTRWMYPEAEFSYNPDNANEAVQRQYNGSDDVNKLMWILQ | not soluble
